Positions count from the first letter of the chain named.
T1: human FcγRIIa type H (human, UniProt P12318 36-217)
T1 construct: also called FcgRIIaH; FcγRIIa(H)
T1 sequence: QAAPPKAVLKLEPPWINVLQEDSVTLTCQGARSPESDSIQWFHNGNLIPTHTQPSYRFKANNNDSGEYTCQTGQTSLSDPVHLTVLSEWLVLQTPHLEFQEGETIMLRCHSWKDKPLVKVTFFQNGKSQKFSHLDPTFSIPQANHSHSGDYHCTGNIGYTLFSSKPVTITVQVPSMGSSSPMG

T2: human FcγRIIb (human, UniProt P31994 43-217)
T2 construct: also called FcgRIIb; FcγIIB
T2 sequence: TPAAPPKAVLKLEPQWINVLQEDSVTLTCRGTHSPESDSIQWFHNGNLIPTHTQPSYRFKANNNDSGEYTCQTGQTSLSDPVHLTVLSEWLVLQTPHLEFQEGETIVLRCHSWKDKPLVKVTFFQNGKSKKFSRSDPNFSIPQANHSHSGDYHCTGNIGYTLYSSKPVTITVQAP

T3: human FcγRIIa type R (human, UniProt P12318 36-217)
T3 construct: also called FcgRIIaR; FcγRIIa(R)
T3 chain: T1 sequence with H133R

T4: human FcγRIIb (human, UniProt P31994 43-217, limits assumed)
T4 construct: also called FcgRIIb; FcγIIB
T4 sequence: T2 sequence

T5: human FcγRIIa type H (human, UniProt P12318 36-217)
T5 construct: also called FcgRIIaH; FcγRIIa(H)
T5 sequence: T1 sequence

B1: IL6R-BP129/IL6R-L (antibody, human IgG1)
heavy: QVQLQESGPGLVKPSETLSLTCAVSGHSISHDHAWSWVRQPPGEGLEWIGFISYSGITNYNPSLQGRVTISRDNSKNTLYLQMNSLRAEDTAVYYCARSLARTTAMDYWGEGTLVTVSSASTKGPSVFPLAPSSKSTSGGTAALGCLVKDYFPEPVTVSWNSGALTSGVHTFPAVLQSSGLYSLSSVVTVPSSSLGTQTYICNVNHKPSNTKVDKKVEPKSCDKTHTCPPCPAPDLLGGDSVFLFPPKPKDTLMISRTPEVTCVVVDVSHEDPEVKFNWYVDGVEVHNAKTKPREEQDNSTYRVVSVLTVLHQDWLNGKEYKCKVSNKALPKPIEKTISKAKGQPREPQVYTLPPSRDELTKNQVSLTCLVKGFYPSDIAVEWESNGQPENNYKTTPPVLDSDGSFFLYSKLTVDKSRWQQGNVFSCSVMHEALHNHYTQESLSLSP
light: DIQMTQSPSSLSASVGDRVTITCRASQDISSYLNWYQQKPGKAPKLLIYYTSRLHSGVPSRFSGSGSGTDFTFTISSLQPEDIATYYCQQGNTLPYTFGQGTKVEIK
B2: IL6R-BP150/IL6R-L (antibody, human IgG1)
heavy: B1 heavy with D235E, L236Y, G239D, D298Y, K328A, K332R
light: B1 light
B3: IL6R-BP149/IL6R-L (antibody, human IgG1)
heavy: B1 heavy with L236Y, G239D, K328A
light: B1 light
B4: IL6R-BP143/IL6R-L (antibody, human IgG1)
heavy: B1 heavy with D235E, L236Y, D298Y, K328A, K332A
light: B1 light
B5: IL6R-BP179/IL6R-L (antibody, human IgG1)
heavy: B1 heavy with D235E, G239D, P273G, D298Y, K328A
light: B1 light
B6: IL6R-BP193/IL6R-L (antibody, human IgG1)
heavy: B1 heavy with H270D, P273G, D298Y
light: B1 light
notes: The common L chain is IL6R-L; copies: 2 + 2
B7: IL6R-BP177/IL6R-L (antibody, human IgG1)
heavy: B1 heavy with L236Y, G239D, P273G, D298Y, K328D
light: B1 light
B8: IL6R-BP148/IL6R-L (antibody, human IgG1)
heavy: B1 heavy with L236Y, G239D, D298Y, K328A
light: B1 light
B9: IL6R-BP184/IL6R-L (antibody, human IgG1)
heavy: B1 heavy with P273G, D298Y
light: B1 light
B10: IL6R-BP183/IL6R-L (antibody, human IgG1)
heavy: B1 heavy with L236Y, P273G, D298Y, K328A
light: B1 light
B11: IL6R-BP145/IL6R-L (antibody, human IgG1)
heavy: B1 heavy with D235E, L236Y, G239D, D298Y, K332A
light: B1 light
B12: IL6R-BP186/IL6R-L (antibody, human IgG1)
heavy: B1 heavy with L236Y, G239D, P273G, K328A
light: B1 light
B13: IL6R-BP180/IL6R-L (antibody, human IgG1)
heavy: B1 heavy with D235E, G239D, P273G, D298Y
light: B1 light
B14: IL6R-BP132/IL6R-L (antibody, human IgG1)
heavy: B1 heavy with D298Y, K328A
light: B1 light
B15: IL6R-BP185/IL6R-L (antibody, human IgG1)
heavy: B1 heavy with L236Y, G239D, P273G, D298Y, K328A
light: B1 light
B16: IL6R-BP200/IL6R-L (antibody)
heavy: B1 heavy with L236Y, G239D, P273G, D298Y, K328D, K332R
light: B1 light
notes: copies: 2 + 2
B17: IL6R-BP144/IL6R-L (antibody, human IgG1)
heavy: B1 heavy with D235E, G239D, D298Y, K328A, K332A
light: B1 light
B18: IL6R-BP133/IL6R-L (antibody, human IgG1)
heavy: B1 heavy with L236Y, D298Y
light: B1 light
B19: IL6R-BP188/IL6R-L (antibody, human IgG1)
heavy: B1 heavy with G239D, H270D, P273G, D298Y
light: B1 light
notes: as for B6
B20: IL6R-G1d/IL6R-L (antibody, human IgG1)
heavy: not shown
light: B1 light
notes: also called IgG1

Experiments:
human FcγRIIa type H [1] = biological target: T1, human FcγRIIa type H; test: SPR (Biacore), FcγR over captured antibody; binding amount / that of IL6R-BF648/IL6R-L x100
Protocol: (§1) According to the following method, relative binding activities were calculated for the results of analyzing interactions with the respective FcγRs.

human FcγRIIb [2] = biological target: T2, human FcγRIIb; test: as above
Protocol: as §1

human FcγRIa [3] = biological target: T6, human FcγRIa (human, UniProt P12314 16-292, limits assumed); test: as above
T6 construct: also called FcgRIa; CD64
T6 sequence (P12314 16-292 limits assumed): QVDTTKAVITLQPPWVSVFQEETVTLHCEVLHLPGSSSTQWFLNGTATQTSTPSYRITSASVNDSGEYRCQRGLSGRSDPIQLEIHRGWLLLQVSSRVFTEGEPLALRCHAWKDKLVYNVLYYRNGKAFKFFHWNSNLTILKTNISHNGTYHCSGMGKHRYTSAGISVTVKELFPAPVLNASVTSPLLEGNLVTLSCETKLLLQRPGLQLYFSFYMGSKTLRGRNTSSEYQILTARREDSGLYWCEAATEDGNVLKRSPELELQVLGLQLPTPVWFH
Protocol: as §1

human FcγRIIIa type V = biological target: T7, human FcγRIIIa type V (human, UniProt P08637 17-208, limits assumed); test: as above
T7 construct: Allotype V158 was used; also called FcgRIIIaV; FcγRIIIa(V)
T7 sequence (P08637 other isoform, or with tags, fused parts or gaps limits assumed): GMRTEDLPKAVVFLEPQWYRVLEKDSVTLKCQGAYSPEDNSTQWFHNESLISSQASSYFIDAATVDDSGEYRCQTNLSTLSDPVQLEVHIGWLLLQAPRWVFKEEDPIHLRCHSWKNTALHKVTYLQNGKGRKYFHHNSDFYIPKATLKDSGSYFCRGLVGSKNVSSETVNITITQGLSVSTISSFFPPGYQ
Protocol: as §1

human FcγRIIa type R = biological target: T3, human FcγRIIa type R; test: as above
Protocol: as §1

human FcγRIa [4] = biological target: T8, human FcγRIa (human, UniProt P12314 16-292, limits assumed); test: SPR (Biacore); binding amount divided by that of control IL6R-BF648/IL6R-L, x100
T8 construct: also called FcgRIa; CD64
T8 sequence (P12314 16-292 limits assumed): as the sequence (P12314 16-292 limits assumed) above
Protocol: as §1

human FcγRIIb [5] = biological target: T4, human FcγRIIb; test: as above
Protocol: as §1

human FcγRIIa type H [6] = biological target: T5, human FcγRIIa type H; test: as above
Protocol: as §1

| Binder | relative binding activity (human FcγRIIa type H [1]) | relative binding activity (human FcγRIIb [2]) | relative binding activity (human FcγRIa [3]) | relative binding activity (human FcγRIIIa type V) | relative binding activity (human FcγRIIa type R) | relative binding activity (human FcγRIa [4]) | relative binding activity (human FcγRIIb [5]) | relative binding activity (human FcγRIIa type H [6]) |
| --- | --- | --- | --- | --- | --- | --- | --- | --- |
| B1 | 98 % of IL6R-BF648/IL6R-L | 138 % of IL6R-BF648/IL6R-L | 68 % of IL6R-BF648/IL6R-L | 95 % of IL6R-BF648/IL6R-L | 111 % of IL6R-BF648/IL6R-L |  |  |  |
| B2 | 770 % of IL6R-BF648/IL6R-L | 183 % of IL6R-BF648/IL6R-L | 30 % of IL6R-BF648/IL6R-L | 204 % of IL6R-BF648/IL6R-L | 757 % of IL6R-BF648/IL6R-L |  |  |  |
| B3 | 401 % of IL6R-BF648/IL6R-L | 173 % of IL6R-BF648/IL6R-L | 29 % of IL6R-BF648/IL6R-L | 186 % of IL6R-BF648/IL6R-L | 539 % of IL6R-BF648/IL6R-L |  |  |  |
| B4 | 143 % of IL6R-BF648/IL6R-L | 133 % of IL6R-BF648/IL6R-L | 86 % of IL6R-BF648/IL6R-L | 114 % of IL6R-BF648/IL6R-L | 238 % of IL6R-BF648/IL6R-L |  |  |  |
| B5 | 226 % of IL6R-BF648/IL6R-L | 177 % of IL6R-BF648/IL6R-L | 39 % of IL6R-BF648/IL6R-L | 125 % of IL6R-BF648/IL6R-L | 570 % of IL6R-BF648/IL6R-L |  |  |  |
| B6 |  |  |  |  |  | 113 % of IL6R-BF648/IL6R-L | 173 % of IL6R-BF648/IL6R-L | 154 % of IL6R-BF648/IL6R-L |
| B7 | 409 % of IL6R-BF648/IL6R-L | 177 % of IL6R-BF648/IL6R-L | 57 % of IL6R-BF648/IL6R-L | 186 % of IL6R-BF648/IL6R-L | 691 % of IL6R-BF648/IL6R-L |  |  |  |
| B8 | 462 % of IL6R-BF648/IL6R-L | 176 % of IL6R-BF648/IL6R-L | 33 % of IL6R-BF648/IL6R-L | 227 % of IL6R-BF648/IL6R-L | 603 % of IL6R-BF648/IL6R-L |  |  |  |
| B9 | 131 % of IL6R-BF648/IL6R-L | 171 % of IL6R-BF648/IL6R-L | 96 % of IL6R-BF648/IL6R-L | 106 % of IL6R-BF648/IL6R-L | 436 % of IL6R-BF648/IL6R-L |  |  |  |
| B10 | 191 % of IL6R-BF648/IL6R-L | 164 % of IL6R-BF648/IL6R-L | 83 % of IL6R-BF648/IL6R-L | 113 % of IL6R-BF648/IL6R-L | 423 % of IL6R-BF648/IL6R-L |  |  |  |
| B11 | 224 % of IL6R-BF648/IL6R-L | 152 % of IL6R-BF648/IL6R-L | 41 % of IL6R-BF648/IL6R-L | 153 % of IL6R-BF648/IL6R-L | 350 % of IL6R-BF648/IL6R-L |  |  |  |
| B12 | 368 % of IL6R-BF648/IL6R-L | 175 % of IL6R-BF648/IL6R-L | 43 % of IL6R-BF648/IL6R-L | 143 % of IL6R-BF648/IL6R-L | 614 % of IL6R-BF648/IL6R-L |  |  |  |
| B13 | 203 % of IL6R-BF648/IL6R-L | 179 % of IL6R-BF648/IL6R-L | 29 % of IL6R-BF648/IL6R-L | 100 % of IL6R-BF648/IL6R-L | 602 % of IL6R-BF648/IL6R-L |  |  |  |
| B14 | 130 % of IL6R-BF648/IL6R-L | 150 % of IL6R-BF648/IL6R-L | 91 % of IL6R-BF648/IL6R-L | 120 % of IL6R-BF648/IL6R-L | 191 % of IL6R-BF648/IL6R-L |  |  |  |
| B15 | 446 % of IL6R-BF648/IL6R-L | 179 % of IL6R-BF648/IL6R-L | 47 % of IL6R-BF648/IL6R-L | 191 % of IL6R-BF648/IL6R-L | 670 % of IL6R-BF648/IL6R-L |  |  |  |
| B16 |  |  |  |  |  | 60 % of IL6R-BF648/IL6R-L | 188 % of IL6R-BF648/IL6R-L | 517 % of IL6R-BF648/IL6R-L |
| B17 | 108 % of IL6R-BF648/IL6R-L | 121 % of IL6R-BF648/IL6R-L | 64 % of IL6R-BF648/IL6R-L | 128 % of IL6R-BF648/IL6R-L | 204 % of IL6R-BF648/IL6R-L |  |  |  |
| B18 | 151 % of IL6R-BF648/IL6R-L | 137 % of IL6R-BF648/IL6R-L | 41 % of IL6R-BF648/IL6R-L | 114 % of IL6R-BF648/IL6R-L | 174 % of IL6R-BF648/IL6R-L |  |  |  |
| B19 |  |  |  |  |  | 74 % of IL6R-BF648/IL6R-L | 179 % of IL6R-BF648/IL6R-L |  |
| B20 | 1670 % of IL6R-BF648/IL6R-L | 62 % of IL6R-BF648/IL6R-L | 140 % of IL6R-BF648/IL6R-L | 3350 % of IL6R-BF648/IL6R-L | 650 % of IL6R-BF648/IL6R-L |  |  |  |
